Measured values: patent US9555076B2, “Neuregulin based methods and compositions for treating cardiovascular diseases” (Zensun (Shanghai) Science & Technology, Co., Ltd., priority 2002, dated 2017)

Experiments:
[1] = tested on: congestive heart failure caused by inferior vena cava constriction in dog; assay: Echocardiography (EF, FS, CO), inferior vena cava constriction (TIVCC) dog; format: in vivo, crossbred dog
Experimental: […] dosage level of 1, 3 and 10 μg/kg respectively of rhNRG-1 β was diluted with preparation buffer solution (vehicle) to needed concentration, intravenous injection once everyday for consecutive 5 days.
3% pentobarbital sodium (30 mg/kg) was injected into the peripheral vein to anesthetize the dog, then trachea intubated. […] Bred for 1 week, echocardiography performed according to the amount of ascites, when EF reduced by about 20% or dilatation of the left heart by about 20%, stable low cardiac output congestive heart failure animal model was established. Then intravenous injection of the drug was carried out for consecutive 5 days.
• Heart function index determination was carried out under anesthesia of the dog prior to the operation, prior to and 5-day after the drug administration. Major index included: • EF (Ejection Fraction): heart ejection fraction, i.e., ratio of difference between end diastolic volume of the ventricle (EDV) and end systolic volume of ventricle (ESV) and end diastolic volume of ventricle, being general index used for reflecting pumping function of ventricle; especially reflecting the systolic function; • FS: ventricular short axis shortening rate, being index reflecting contraction function of ventricle, • CO: cardiac output, i.e. blood volume ejected by the heart per minute. 6.3.3.2 Hemodynamic Index Determination

[2] = tested on: heart failure in rat caused by ligation of coronary artery; assay: Echocardiography heart function, heart failure by ligation of coronary artery; format: in vivo, SD rat
[3] = 1 μg/kg group, prior to drug administration
[4] = 1 μg/kg iv daily 5 days, after drug administration
[5] = 3 μg/kg group, prior to drug administration
[6] = 3 μg/kg iv daily 5 days, after drug administration
[7] = 10 μg/kg group, prior to drug administration
[8] = 10 μg/kg iv daily 5 days, after drug administration

B1: rhNRG-1 β: Recombinant human neuregulin fragment of 61 amino acid (SEQ ID NO:4), 3 disulfide bonds, expressed in E. coli (protein, listed as Homo sapiens)
chain: SHLVKCAEKEKTFCVNGGECFMVKDLSNPSRYLCKCPNEFTGDRCQNYVMASFYKAEELYQ
modifications: disulfide (positions not given here)
[1]; 1 μg/kg group, preoperation
  CO: 4.2 ± 0.6 L/min
  EF: 82.8 ± 3.0%
  FS: 50.8 ± 4.0%
[1]; [3]
  CO: 2.4 ± 0.5 L/min
  EF: 57.7±10.9%
  FS: 30.6±8.0%
[1]; 1 μg/kg group, prior to drug administration, listed as rhNRG-1β
  CO: 2.4 ± 0.5 L/min
[1]; [4]
  CO: 3.7 ± 0.8 L/min
  EF: 70.4±8.4%
  FS: 39.7±5.7%
[1]; 1 μg/kg iv daily 5 days, after drug administration, listed as rhNRG-1β
  CO: 3.7 ± 0.8 L/min
[1]; 3 μg/kg group, preoperation
  CO: 4.3 ± 0.8 L/min
  EF: 84.7 ± 2.8%
  FS: 51.7 ± 2.9%
[1]; [5]
  CO: 2.1 ± 0.7 L/min
  EF: 58.0 ± 8.3%
  FS: 29.9 ± 6.4%
[1]; [6]
  CO: 4.0 ± 0.9 L/min
  EF: 74.7 ± 4.6 %
  FS: 42.4 ± 4.4 %
[1]; 10 μg/kg group, preoperation
  CO: 4.3 ± 0.6 L/min
  EF: 82.9 ± 2.6%
  FS: 50.5 ± 3.3%
[1]; [7]
  CO: 1.9 ± 0.3 L/min
  EF: 55.8 ± 10.0%
  FS: 27.7 ± 5.6%
[1]; [8]
  CO: 3.6 ± 0.7 L/min
  EF: 74.7 ± 3.2 %
  FS: 41.5 ± 3.1 %
[1]; 1, 3 and 10 μg/kg iv daily 5 days
  effect on heart rate: less effect on heart rate
[2]; 5 μg/kg, after ligation prior to drug administration, long-term monitoring
  EF value: 53.1 ± 12.8%
[2]; 20 μg/kg
  time the changes of ejection fraction maintain after the drug administration: about 35 days
[2]; 20 μg/kg, 5-day after drug administration and 35-day after drug withdrawal
  EF value: 73.0 ± 20.3 %
